The target in data set [1] is T1, biotinylated human erythrocyte β-spectrin repeats 12–17 (human, UniProt P11277 1486-2083, biotin (biotinylated; site not stated)).
T1 sequence (looked up): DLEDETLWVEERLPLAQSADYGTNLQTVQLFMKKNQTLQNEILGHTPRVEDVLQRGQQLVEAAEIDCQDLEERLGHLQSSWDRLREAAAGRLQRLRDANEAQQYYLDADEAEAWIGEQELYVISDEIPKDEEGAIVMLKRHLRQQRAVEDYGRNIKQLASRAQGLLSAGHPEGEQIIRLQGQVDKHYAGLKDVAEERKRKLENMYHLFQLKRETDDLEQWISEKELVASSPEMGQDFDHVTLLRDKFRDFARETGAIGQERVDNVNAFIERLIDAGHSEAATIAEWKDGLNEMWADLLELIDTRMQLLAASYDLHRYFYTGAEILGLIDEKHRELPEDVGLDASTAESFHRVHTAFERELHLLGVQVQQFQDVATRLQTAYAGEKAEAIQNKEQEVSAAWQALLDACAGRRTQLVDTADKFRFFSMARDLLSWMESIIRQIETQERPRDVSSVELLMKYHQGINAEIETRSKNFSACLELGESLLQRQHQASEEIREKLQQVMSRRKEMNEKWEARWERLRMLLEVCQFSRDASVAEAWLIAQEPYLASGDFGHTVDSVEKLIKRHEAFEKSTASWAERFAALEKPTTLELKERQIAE
Description: SPR. (SPR reads the build-up and loss of mass on a sensor chip optically.)

The data set “SEC” concerns the molecule itself. Description: SEC. For orientation: Size exclusion chromatography separates by hydrodynamic size, large species first.

From PMC3312341 (Journal of Molecular Biology, 2012) come the findings set out here.

B1: ZU5A-ZU5B fragment of human erythrocyte ankyrin (ankyrin-R), residues 911–1233 (domain or fragment, UniProt P16157 911-1233, looked up)
chain: TGFLVSFMVDARGGSMRGSRHNGLRVVIPPRTCAAPTRITCRLVKPQKLSTPPPLAEEEGLASRIIALGPTGAQFLSPVIVEIPHFASHGRGDRELVVLRSENGSVWKEHRSRYGESYLDQILNGMDEELGSLEELEKKRVCRIITTDFPLYFVIMSRLCQDYDTIGPEGGSLKSKLVPLVQATFPENAVTKRVKLALQAQPVPDELVTKLLGNQATFSPIVTVEPRRRKFHRPIGLRIPLPPSWTDNPRDSGEGDTTSLRLLCSVIGGTDQAQWEDITGTTKLVYANECANFTTNVSARFWLSDCPRTAEAVNFATLLYKEL
One may read the Kd as the free concentration of one partner at which half of the binding sites on the other are occupied at equilibrium, for simple one-to-one binding. A higher Kd goes with a looser complex. As for B1, the Kd in data set [1] was found to be 8.3 nM.

B2: Ankyrin-R Death domain (DD), residues 1394–1497 (domain or fragment, human, UniProt P16157 1394-1497, looked up)
chain: PGSLSGTEQAEMKMAVISEHLGLSWAELARELQFSVEDINRIRVENPNSLLEQSVALLNLWVIREGQNANMENLYTALQSIDRGEIVNMLEGSGRQSRNLKPDR
Broadly, the stoichiometry N is the number of molecules, sites or subunits per partner or assembly. On to B2, for which the “stoichiometry N” value in “SEC” amounted to 2.
